Data reported in patent US20200129630A1, “METHODS FOR TREATING CANCER” (BicycleRD Limited, priority 2018, published 2020).
Values joined by “and” are separate entries in the source; they are usually repeats but may differ in a detail not shown here. Equal values may be shown once. Numbered stars: 1 amine (or outer) side, 2 acyl side, 3 side chain; on linkers, the order of the positions; unused ones are H or OH. Bridge positions count the residues as written; N and C are the ends. Square brackets hold non-standard residues; d marks the D form. Peptide text beside a SMILES is read from it. * marks the point of attachment. X1 = COc1cc2cc(c1Cl)N(C)C(=O)C[C@H](OC(=O)[C@H](C)N(C)C(=O)CCSSC(C)CCC(=O)*)[C@]1(C)O[C@H]1[C@H](C)[C@@H]1C[C@@](O)(NC(=O)O1)[C@H](OC)/C=C/C=C(\C)C2; 1Nal = N[C@@H](Cc1cccc2ccccc12)C(=O)O; TBMB = c1c(C[*:1])cc(C[*:3])cc1C[*:2]; Tle = CC(C)(C)[C@H](N)C(=O)O; βAla = NCCC(=O)O; Sar = CNCC(=O)O

Columns and labels:
[1] = Stability in whole blood in vitro, mouse; type: in vitro ADME; settings: 37° C.
Procedure: (§1) The stability of BT1718 was assessed in plasma and whole blood from humans, monkey, dog, mouse and rat. […] The mechanism for the difference in stability of the BT1718 peptide in whole blood between the different species is unknown.

[2] = Stability in whole blood in vitro, dog; type: in vitro ADME; settings: 37° C.
Procedure: as §1

[3] = Stability in plasma in vitro, monkey; type: in vitro ADME; settings: 37° C.
Procedure: as §1

[4] = Non-GLP toxicity studies, monkey; type: in vivo, monkeys
Text: (§3) These include in vitro tissue microarray in human, rat and monkey tissues and in vitro and in vivo assessment of immunogenicity. In vivo assessments include single dose toxicity in mice and rats, multiple dose range finding studies in mice, rats, dogs and monkeys (non-GLP) and GLP-compliant multiple dose studies in rats and monkeys consisting of 28-day on study phase with a 28-day recovery period.

[5] = Clinical pharmacokinetics of BT1718, 1 h intravenous infusion; type: in vivo, patients; settings: for clearance / half-life / Vd: human, plasma
Text: Intact BT1718 and total DM1 (DM1 in BT1718, any peptidyl-DM1 metabolites of BT1718, and other DM1-containing mixed disulfides and free DM1) will be measured in plasma according to agreed standard operating procedures (SOPs) and validated methods in Phase I, dose escalation phase (Stage 1 and 2) and potentially in Phase IIa, expansion phase (Parts A and B), dependent on emerging data.
The plasma concentration/time data will be analyzed using non-compartmental methods. The PK parameters to be determined for intact BT1718 include Cmax, Tmax, AUC, t1/2, total body clearance (CLT) and Vdss. The PK parameters to be determined for total DM1 include Cmax, Tmax, AUC and t1/2.
The preliminary clinical pharmacokinetic data for BT1718 following a 1 hour intravenous infusion to patients are shown in Table 13 below.

BALB/c mouse PK study = settings: female; for Cmax: BALB/c mouse, 15 mg/m^2 (5 mg/kg) IV
[6] = Plasma protein binding, dog; type: in vitro ADME; settings: read-out: free fraction
Procedure: Plasma protein binding of BT1718 was also assessed. The mean plasma protein binding of the BT1718 peptide ranged from 87% to 98%, with the free fraction of BT1718 being 13% in human, 2.6% in rats, 7.5% in mice, 3.8% in monkey and 1.5% in dog plasma, the results had no correlation to the plasma and whole blood stability data. […] Plasma protein binding of unconjugated DM1, has previously been reported, with the unbound fraction being 7% in human and monkey and 3% in rat.

EBC-1 = test: In vitro cytotoxicity (CellTiter-Glo) EBC-1; type: cell-based; settings: EBC-1, Lung
Text: (§2) Table 1 and Table 2 Notes: in general regression and stable disease correlated with the in vitro cytotoxicity and MT1-MMP expression. Female BALB/c mice n=3/group animals dosed twice per week except EBC-1 three per week. Tumor growth inhibition (TGI) (%)=[1−(Ti−T0)/(Vi−V0)]×100; Ti is the average tumor volume of a treatment group on a given day, TO is the average tumor volume of the treatment group on the day of treatment start, Vi is the average tumor volume of vehicle control group on the same day with Ti, and V0 is the average tumor volume of vehicle group on the day of treatment start. A one-way ANOVA was performed to compare tumor volume among groups, and when a significant F-statistics (a ratio of treatment variance to the error variance) was obtained, comparisons between groups were carried out with Games-Howell test. All data were analyzed using GraphPad Prism.* p<0.05, ** p<0.01, *** p<0.001. In vitro cytotoxicity was measured by CellTiter-Glo®, MT1-MMP membrane H score from immunohistochemistry staining, NM not measured. Tumor size on Day 1 of dosing.

[7] = Non-GLP toxicity studies, mouse; type: in vivo
Text: as §3

[8] = Distribution into blood cells; type: in vitro ADME; settings: comparable across human and all preclinical species tested
HT-1080 = test: In vitro cytotoxicity (CellTiter-Glo) HT-1080; type: cell-based; settings: HT-1080, Fibrosarcoma
Text: as §2

[9] = Wistar Han rat GLP study toxicokinetics; type: in vivo; settings: plasma, Day 1 male; for Cmax: read-out: C0/Cmax
Text: In a repeat dose experiment with BT1718 no significant gender-related differences in the TK parameters for the rat or monkey were noted. Exposure in both the rat and monkey increased approximately linearly with dose and was maintained for 28 days on repeat dosing. […] Plasma clearance and volume of distribution were similar across BT1718 dose and consistent with the PK studies.

[10] = Sprague Dawley rat PK study; type: in vivo; settings: plasma, 15 mg/m2, male, 15 mg/m^2 IV
[11] = Total DM1 in plasma and urine / excretion (preclinical); type: in vivo
Procedure: Efficacy in this model was reduced in the conjugates containing the least cleavable linkers. […] Effective treatment was also seen with same total dose, given at on schedules from daily to a single weekly dose.
The concentration of total DM1 in plasma and urine was also measured following a reduction step, to detect DM1 in BT1718, any peptidyl-DM1 metabolites of BT1718, other DM1-containing mixed disulfides and free DM1. The level of total DM1 in plasma and urine increased with increasing dose, with about 85% of the total DM1 recovered in urine within 48 hours of BT1718 administration. […] An assay for free DM1 has not been successfully developed due to the instability of the free thiol in biological matrices.

[12] = 9.6 mg/m^2, 1 h IV infusion, individual patients
[13] = BALB/c, mouse, plasma, iv, 15 mg/m2
[14] = 1.2 mg/m2, Wister Han rats GLP, 1.2 mg/m^2 IV
[15] = 3 mg/m2, Wister Han rats GLP, 3 mg/m^2 IV
[16] = 6 mg/m2, Wister Han rats GLP, 6 mg/m^2 IV

SMILES: COc1cc2cc(c1Cl)N(C)C(=O)C[C@H](OC(=O)[C@H](C)N(C)C(=O)CCSSC(C)CCC(=O)NCCC(=O)N(C)CC(=O)N(C)CC(=O)N(C)CC(=O)N(C)CC(=O)N(C)CC(=O)N(C)CC(=O)N(C)CC(=O)N(C)CC(=O)N(C)CC(=O)N(C)CC(=O)N[C@@H](C)C(=O)N[C@H]1CSCc3cc4cc(c3)CSC[C@H](NC(=O)[C@@H](C)NC(=O)[C@H](Cc3cccc5ccccc35)NC(=O)[C@H](CCC(=O)O)NC(=O)[C@H](CC(N)=O)NC(=O)[C@@H](C)NC1=O)C(=O)N[C@@H](CCC(=O)O)C(=O)N[C@@H](CC(=O)O)C(=O)N[C@@H](Cc1ccccc1)C(=O)N[C@@H](Cc1ccc(O)cc1)C(=O)N[C@@H](CC(=O)O)C(=O)N[C@@H](C(C)(C)C)C(=O)N[C@H](C(N)=O)CSC4)[C@]1(C)O[C@H]1[C@H](C)[C@@H]1C[C@@](O)(NC(=O)O1)[C@H](OC)/C=C/C=C(\C)C2 (some centres unmarked) [BT1718] ({X1-βAla}-[Sar][Sar][Sar][Sar][Sar][Sar][Sar][Sar][Sar][Sar]AC[dA]NE[1Nal][dA]CEDFYD[Tle]C-NH2; linker 12-18-25 via TBMB (inferred))
- half-life [1]: > 1440 min
- half-life [2]: > 1440 min
- half-life [3]: > 300 min
- peripheral haematology ([4]; monkeys 2 mg/kg, 24 mg/m^2 once weekly): significant decreases in WBCs
- GI findings ([4]; monkeys, single 3 mg/kg (36 mg/m^2) one week post 1.5 mg/kg dose): mild single cell necrosis of the glandular epithelial cells in the caecum
- CLp [5, 12]: 4.4 mL/min/kg and 10.2 mL/min/kg
- Vss [5, 12]: 0.18 L/kg
- t½ [5, 12]: 17 min and 14 min
- clearance ([5]; intravenous, Data for all patients, read-out: CLp): 10 mL/min/kg
- half-life ([5]; intravenous, Data for all patients, read-out: t½): 18 min
- clearance ([5]; intravenous, Data for cycle 1 only, read-out: CLp): 12 mL/min/kg
- half-life ([5]; intravenous, Data for cycle 1 only, read-out: t½): 18 min
- clearance ([5]; intravenous, patients, read-out: Mean (±SD) plasma clearance (CLp) (converted)): 538 mL/min
- Vd ([5]; intravenous, patients, read-out: mean (±SD) volume of distribution (Vss)): 22.9 L
- half-life ([5]; intravenous, patients, read-out: terminal half-life (t½)): 12 to 60 min
- clearance ([5]; iv, 1.2 mg/m^2, 1.2 mg/m^2, 1 h IV infusion, individual patient, read-out: CLp): 12.5 mL/min/kg
- Vd ([5]; iv, 1.2 mg/m^2, 1.2 mg/m^2, 1 h IV infusion, individual patient, read-out: Vss): 0.23 L/kg
- half-life ([5]; iv, 1.2 mg/m^2, 1.2 mg/m^2, 1 h IV infusion, individual patient, read-out: t½): 6 min
- clearance ([5]; iv, 2.4 mg/m^2, 2.4 mg/m^2, 1 h IV infusion, individual patient, read-out: CLp): 18.4 mL/min/kg
- Vd ([5]; iv, 2.4 mg/m^2, 2.4 mg/m^2, 1 h IV infusion, individual patient, read-out: Vss): 0.3 L/kg
- half-life ([5]; iv, 2.4 mg/m^2, 2.4 mg/m^2, 1 h IV infusion, individual patient, read-out: t½): 6 min
- clearance ([5]; iv, 4.8 mg/m^2, 4.8 mg/m^2, 1 h IV infusion, individual patient, read-out: CLp): 13.3 mL/min/kg
- Vd ([5]; iv, 4.8 mg/m^2, 4.8 mg/m^2, 1 h IV infusion, individual patient, read-out: Vss): 0.19 L/kg
- half-life ([5]; iv, 4.8 mg/m^2, 4.8 mg/m^2, 1 h IV infusion, individual patient, read-out: t½): 10 min
- Vd ([5]; iv, 9.6 mg/m^2, 9.6 mg/m^2, 1 h IV infusion, individual patients, read-out: Vss): 0.15 L/kg
- half-life ([5]; iv, 9.6 mg/m^2, 9.6 mg/m^2, 1 h IV infusion, individual patients, read-out: t½): 16 min
- AUC vs dose ([5]; over the range 0.6-25 mg/m2): approximately dose proportional
- AUC (BALB/c mouse PK study; BALB/c, mouse, plasma, intravenous, 5 mg/kg): ~2.5 µM·h
- Cmax (BALB/c mouse PK study; BALB/c, mouse, plasma, iv, 5 mg/kg, C0/Cmax): 8000 nM
- AUC (BALB/c mouse PK study; [13]): 2.3 ± 0.2 µM·h
- Vd (BALB/c mouse PK study; [13]): 0.23 ± 0.09 L/kg
- clearance (BALB/c mouse PK study; [13]): 7.5 ± 0.6 mL/min/kg
- half-life (BALB/c mouse PK study; [13]): 33.6 ± 10.8 min
- Cmax (BALB/c mouse PK study; read-out: C0/Cmax): 7200 ± 410 nM
- fraction unbound [6]: 0.015
- IC50 (EBC-1): 27 nM
- GI findings ([7]; mice, single dose of 13.4 mg/kg (40.2 mg/m^2)): intestinal mucosal mitosis
- renal findings ([7]; mouse 3.3 mg/kg, 10 mg/m^2 three times weekly): Moderate renal tubule degeneration and epithelial mitosis
- distribution into blood cells [8]: limited distribution into blood cells
- IC50 (HT-1080): 4.3 nM
- AUC [9, 14]: 0.09 µM·h
- Cmax [9, 14]: 80 nM
- AUC [9, 15]: 0.46 µM·h
- Cmax [9, 15]: 590 nM
- AUC [9, 16]: 0.85 µM·h
- Cmax [9, 16]: 1020 nM
- AUC [10]: 1.5 ± 0.2 µM·h
- clearance [10]: 9.4 ± 1.1 mL/min/kg
- half-life [10]: 33.6 ± 6.6 min
- Cmax ([10]; read-out: C0/Cmax): 4200 ± 1100 nM
- Vd ([10]; read-out: Vdss): 0.29 ± 0.03 L/kg
- route of excretion ([11]; preliminary metabolism studies): excreted mainly through the kidney in urine
- total DM1 recovered in urine ([11]; within 48 hours of BT1718 administration): about 85%
